Assay results: EP1192182B1, “PITUITARY ADENYLATE CYCLASE ACTIVATING PEPTIDE (PACAP) RECEPTOR 3 (R3) AGONISTS AND THEIR PHARMACOLOGICAL METHODS OF USE” (priority 1999, dated 2001)
No end group written: not given here.

T1: PACAP-R3 (human, UniProt P41587 24-438)
T1 sequence (looked up): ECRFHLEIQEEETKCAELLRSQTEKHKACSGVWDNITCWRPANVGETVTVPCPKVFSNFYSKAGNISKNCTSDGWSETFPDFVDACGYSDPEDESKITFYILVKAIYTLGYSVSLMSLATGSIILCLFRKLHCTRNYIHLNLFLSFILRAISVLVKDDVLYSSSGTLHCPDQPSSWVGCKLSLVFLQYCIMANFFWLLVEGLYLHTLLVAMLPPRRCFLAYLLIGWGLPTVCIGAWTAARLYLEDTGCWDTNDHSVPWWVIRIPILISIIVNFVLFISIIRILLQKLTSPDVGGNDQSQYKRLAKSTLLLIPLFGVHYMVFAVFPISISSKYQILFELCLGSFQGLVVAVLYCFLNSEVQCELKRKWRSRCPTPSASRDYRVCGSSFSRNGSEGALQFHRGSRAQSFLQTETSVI


Target: T1, PACAP-R3
Test: cell-based or functional assay

R3 Selectivity [ratio]	Binder
7	HSDAVFTDNYTRLRKQLAVKKYLNSILN [R3P46]
6	HSDAVFTDNYTRLRKQMAAKKYLNSILN [R3P47]
8	HSDAVFTDNYTRLRKQMAVKKYLNDILN [R3P48]
30	HSDAVFTDNYTRLRKQMAAKKYLNSIKN [R3P49]
6	HSDAVFTDNYTRLRKQMAAKKYLNSILK [R3P50]
90	HSDAVFTDNYTRLRKQMAAKKYLNSIKK [R3P51]
> 250	HSDAVFTDNYTRLRKQMAAKKYLNSIKKKRY [R3P52]
> 300	Ac-HSDAVFTENYTKLRKQLAAKKYLNDLKKGGT (ends and bridges not checked) [R3P2]
2500	HSDAVFTDNYTRLRKQMAAKKYLNSIKKKR [R3P53]
> 200	HSDAVFTDNYTRLRKQMAAKKYLNSIKKK [R3P54]
280	HSDAVFTDNYTRLRKQMAAKKYLNSIKNKRY [R3P55]
100	HSDAVFTDNYTRLRKQMAVKKYLNSIKKKRY [R3P56]
190	HSDAVFTDNYTRLRKQMAVKKYLNSIKKKR [R3P57]
170	HSDAVFTDNYTRLRKQMAVKKYLNSIKKK [R3P58]
70	HSDAVFTDNYTRLRKQMAVKKYLNSIKNKRY [R3P59]
120	HSDAVFTDNYTRLRKQVAAKKYLQSIKK [R3P60]
140	HSDAVFTDNYTRLRKQIAAKKYLQTIKK [R3P61]
3	HSDGIFTESYSRYRKQMAVKKYLAALKKKRYKQRVKNK [R3P6]
130	HSDAVFTENYTKLRKQLAAKKYLNDLKKGGT [R3P3]
0.5	HSDAVFTENYTRLRKQMAVKKYLNSLKK-NH2 [R3P7]
1.4	HSDGIFTDSYSRYRKQMAVKKYLAAVKQGGT-NH2 [R3P16]
2	HSDGIFTDSYSRYRKQMAVKKYLAAVKKYLAAVRHG-NH2 [R3P17]

R3 Selectivity [ratio]	Binder
23	HSDAVFTDNYTRLRKQLAAKKYLNDILKGGT [R3P23]
8	HSDAVFTDNYTRLRKQLAAKKYLNDILNGGT [R3P27]
1	HSDAVFTDNYTRLRKQLAVKKYLNDILKGGT [R3P28]
18	HSDGIFTDSYSRYRKQLAAKKYLADVKKGGT [R3P37]
7	HSDGIFTDSYSRYRKQLAAKKYLADVKK [R3P38]
30	HSDAVFTENYTKLRKQLAAKKYLNDLKK [R3P5]
2	HSDGIFTDSYSRYRKQLAVKKYLAAVKK [R3P39]
2	HSDGIFTDSYSRYRKQMAVKKYLAAVKK [R3P40]
100	HSDAVFTDNYTRLRKQVAAKKYLNSIKK [R3P62]
130	HSDAVFTDNYTRLRKQMAAKKYLNSIKNKR [R3P65]
250	HSDAVFTDNYTRLRKQVAAKKYLQSIKNKRY [R3P66]
330	HSDAVFTDNYTRLRKQLAAKKYLNTIKNKRY [R3P67]
190	HSDAVFTDNYTRLRKQMAAKKYLQSIKNKRY [R3P69]
> 250	HSDAVFTDNYTRLRKQMAAKKYLNTIKNKRY [R3P70]
660	HSDAVFTDQYTRLRKQMAAKKYLNSIKNKRY [R3P71]
1.5	HSDAVFTDNYTRLRKQMAVKKYLNSIKK-NH2 [R3P8]
> 600	HSDAVFTDQYTRLRKQLAAKKYLNTIKNKRY [R3P72]
170	HSDAVFTDNYTRLRKQMAAHKYLNSIKNKRY [R3P73]
150	HSDAVFTDNYTRLRKQMAAKHYLNSIKNKRY [R3P74]
> 500	HSDAVFTDQYTRLRKQLAAHKYLNTIKNKRY [R3P75]
500	HSDAVFTDNYTRLRKQVAAKKYLQSIKKKR [R3P77]
230	HSDAVFTDNYTRLRKQVAAKKYLNSIKKKR [R3P78]
